Reference: patent US20230272048A1

What was measured:
Experiment in all cases: capture ELISA on Env of lysed AD8 pseudovirus, % of WT
A329K (HIV-1) = target: A329K (HIV-1)
[1] = target: AD8 Env D279A (HIV-1 AD8, clade B)
[2] = target: AD8 Env D368A (HIV-1 AD8, clade B)
[3] = target: AD8 Env D457A (HIV-1 AD8, clade B)
[4] = target: AD8 Env D474A (HIV-1 AD8, clade B)
[5] = target: AD8 Env E370A (HIV-1 AD8, clade B)
[6] = target: AD8 Env G366A (HIV-1 AD8, clade B)
[7] = target: AD8 Env G367A (HIV-1 AD8, clade B)
[8] = target: AD8 Env G471A (HIV-1 AD8, clade B)
[9] = target: AD8 Env G473A (HIV-1 AD8, clade B)
[10] = target: AD8 Env I371A (HIV-1 AD8, clade B)
[11] = target: AD8 Env N332T (HIV-1 AD8, clade B)
[12] = target: AD8 Env T455A (HIV-1 AD8, clade B)
D185A (HIV-1) = target: D185A (HIV-1)
E87A (HIV-1) = target: E87A (HIV-1)
G472A (HIV-1) = target: G472A (HIV-1)
K121A (HIV-1) = target: K121A (HIV-1)
K282A (HIV-1) = target: K282A (HIV-1)
L179A (HIV-1) = target: L179A (HIV-1)
M373A (HIV-1) = target: M373A (HIV-1)
M475A (HIV-1) = target: M475A (HIV-1)
N197A (HIV-1) = target: N197A (HIV-1)
N262A (HIV-1) = target: N262A (HIV-1)
N276A (HIV-1) = target: N276A (HIV-1)
N283A (HIV-1) = target: N283A (HIV-1)
P313A (HIV-1) = target: P313A (HIV-1)
P369A (HIV-1) = target: P369A (HIV-1)
Q363A (HIV-1) = target: Q363A (HIV-1)
R419A (HIV-1) = target: R419A (HIV-1)
R476A (HIV-1) = target: R476A (HIV-1)
S364A (HIV-1) = target: S364A (HIV-1)
S365A (HIV-1) = target: S365A (HIV-1)
[13] = target: AD8 Env V372A (HIV-1 AD8, clade B)

b12 (antibody)
Env binding (%) at antibody EC50 (A329K (HIV-1)): 51% | Env binding (%) at antibody EC50 [1]: 86% | Env binding (%) at antibody EC50 [2]: 21% | Env binding (%) at antibody EC50 [3]: 57% | Env binding (%) at antibody EC50 [4]: 70% | Env binding (%) at antibody EC50 [5]: 54% | Env binding (%) at antibody EC50 [6]: 47% | Env binding (%) at antibody EC50 [7]: 68% | Env binding (%) at antibody EC50 [8]: 88% | Env binding (%) at antibody EC50 [9]: 96% | Env binding (%) at antibody EC50 [10]: 73% | Env binding (%) at antibody EC50 [11]: 66% | Env binding (%) at antibody EC50 [12]: 114% | Env binding (%) at antibody EC50 (D185A (HIV-1)): 63% | Env binding (%) at antibody EC50 (E87A (HIV-1)): 99% | Env binding (%) at antibody EC50 (G472A (HIV-1)): 93% | Env binding (%) at antibody EC50 (K121A (HIV-1)): 95% | Env binding (%) at antibody EC50 (K282A (HIV-1)): 96% | Env binding (%) at antibody EC50 (L179A (HIV-1)): 41% | Env binding (%) at antibody EC50 (M373A (HIV-1)): 111% | Env binding (%) at antibody EC50 (M475A (HIV-1)): 103% | Env binding (%) at antibody EC50 (N197A (HIV-1)): 69% | Env binding (%) at antibody EC50 (N262A (HIV-1)): 52% | Env binding (%) at antibody EC50 (N276A (HIV-1)): 86% | Env binding (%) at antibody EC50 (N283A (HIV-1)): 98% | Env binding (%) at antibody EC50 (P313A (HIV-1)): 95% | Env binding (%) at antibody EC50 (P369A (HIV-1)): 90% | Env binding (%) at antibody EC50 (Q363A (HIV-1)): 77% | Env binding (%) at antibody EC50 (R419A (HIV-1)): 74% | Env binding (%) at antibody EC50 (R476A (HIV-1)): 79% | Env binding (%) at antibody EC50 (S364A (HIV-1)): 110% | Env binding (%) at antibody EC50 (S365A (HIV-1)): 64%

PGT121 (antibody)
Env binding (%) at antibody EC50 (A329K (HIV-1)): 53% | Env binding (%) at antibody EC50 [1]: 103% | Env binding (%) at antibody EC50 [2]: 79% | Env binding (%) at antibody EC50 [3]: 108% | Env binding (%) at antibody EC50 [4]: 81% | Env binding (%) at antibody EC50 [5]: 74% | Env binding (%) at antibody EC50 [6]: 80% | Env binding (%) at antibody EC50 [8]: 75% | Env binding (%) at antibody EC50 [9]: 80% | Env binding (%) at antibody EC50 [10]: 80% | Env binding (%) at antibody EC50 [11]: 8% | Env binding (%) at antibody EC50 [12]: 92% | Env binding (%) at antibody EC50 [13]: 83% | Env binding (%) at antibody EC50 (D185A (HIV-1)): 81% | Env binding (%) at antibody EC50 (E87A (HIV-1)): 73% | Env binding (%) at antibody EC50 (G472A (HIV-1)): 78% | Env binding (%) at antibody EC50 (K121A (HIV-1)): 84% | Env binding (%) at antibody EC50 (K282A (HIV-1)): 78% | Env binding (%) at antibody EC50 (L179A (HIV-1)): 87% | Env binding (%) at antibody EC50 (M373A (HIV-1)): 90% | Env binding (%) at antibody EC50 (M475A (HIV-1)): 84% | Env binding (%) at antibody EC50 (N197A (HIV-1)): 65% | Env binding (%) at antibody EC50 (N262A (HIV-1)): 75% | Env binding (%) at antibody EC50 (N276A (HIV-1)): 97% | Env binding (%) at antibody EC50 (N283A (HIV-1)): 75% | Env binding (%) at antibody EC50 (P369A (HIV-1)): 74% | Env binding (%) at antibody EC50 (Q363A (HIV-1)): 72% | Env binding (%) at antibody EC50 (R419A (HIV-1)): 82% | Env binding (%) at antibody EC50 (R476A (HIV-1)): 73% | Env binding (%) at antibody EC50 (S364A (HIV-1)): 82% | Env binding (%) at antibody EC50 (S365A (HIV-1)): 96%
